According to article PMC6393540, “A dual role in regulation and toxicity for the disordered N-terminus of the toxin GraT”:

Columns and labels:
[1] = target: untagged antitoxin GraA co-expressed with His-tagged GraT (Pseudomonas putida); test: crystal structure; crystal of the co-expressed and co-purified hisGraT2A2 complex, 2.2 Å, data at 100 K
[2] = target: T1, GraA (antitoxin; His-GraA2) (Pseudomonas putida (PaW85?)) (UniProt Q88MI6); test: ITC; conditions: ITC: 50 mM Tris pH 8.0, 250 mM NaCl, 2 mM β-mercaptoethanol (TCEP in purification for ITC), 25 °C; EMSA: 5 µM DNA, 30 min at room temperature, 6% native PAGE …
T1 sequence: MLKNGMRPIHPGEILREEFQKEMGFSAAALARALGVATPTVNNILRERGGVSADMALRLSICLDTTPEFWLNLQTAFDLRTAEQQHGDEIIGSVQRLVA

[3] = target: N-terminally His-tagged antitoxin GraA (Pseudomonas putida); test: crystal structure; crystal of hisGraA2 with the 33 bp graTA operator DNA, 3.8 Å, data at 100 K
[4] = target: N-terminally His-tagged antitoxin GraA (Pseudomonas putida); test: crystal structure; crystal of hisGraA2, 1.96 Å, data at 100 K
[5] = target: N-terminally His-tagged antitoxin GraA (Pseudomonas putida); test: native MS; GraA2 (20 μM dimer) mixed with operator DNA duplex at 1:1, 2:1 and 4:1, 40 mM ammonium acetate pH 7, nano-electrospray
[6] = target: T2, GraT (toxin) in GraT2A2 complex;GraA (untagged) in GraT2A2 complex (Pseudomonas putida;Pseudomonas putida, UniProt Q88MI5;Q88MI6 1-92;1-99, |); test: ITC; macroscopic; ITC: 50 mM Tris pH 8.0, 250 mM NaCl, 2 mM β-mercaptoethanol (TCEP in purification for ITC), 25 °C; EMSA: 5 µM DNA, 30 min at room temperature, 6% native PAGE in TBE on ice; conditions: protein: recombinant;recombinant; tags: N-terminal His6;none; chain copies: 2;2
T2 sequence 1: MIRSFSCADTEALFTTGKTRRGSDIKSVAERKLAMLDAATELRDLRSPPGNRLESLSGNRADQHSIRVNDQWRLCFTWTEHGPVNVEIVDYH
T2 sequence 2: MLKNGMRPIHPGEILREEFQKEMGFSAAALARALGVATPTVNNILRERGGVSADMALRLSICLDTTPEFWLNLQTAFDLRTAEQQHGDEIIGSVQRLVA

[7] = target: T3, GraA (antitoxin; His-GraA2) (Pseudomonas putida, UniProt Q88MI6 1-99); test: ITC; macroscopic, 2 dimers per DNA; text also gives 3.1e13; ITC: 50 mM Tris pH 8.0, 250 mM NaCl, 2 mM β-mercaptoethanol (TCEP in purification for ITC), 25 °C; EMSA: 5 µM DNA, 30 min at room temperature, 6% native PAGE in TBE on ice; conditions: protein: recombinant; tags: N-terminal His6; chain copies: 4
T3 sequence: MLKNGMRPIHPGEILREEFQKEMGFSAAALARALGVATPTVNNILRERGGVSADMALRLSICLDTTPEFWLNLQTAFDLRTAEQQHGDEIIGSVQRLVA

[8] = target: T3, GraA (antitoxin; His-GraA2); test: ITC; macroscopic; ITC: 50 mM Tris pH 8.0, 250 mM NaCl, 2 mM β-mercaptoethanol (TCEP in purification for ITC), 25 °C; EMSA: 5 µM DNA, 30 min at room temperature, 6% native PAGE in TBE on ice; conditions: protein: recombinant; tags: N-terminal His6; chain copies: 4
[9] = target: T3, GraA (antitoxin; His-GraA2); test: ITC; N.D., binding too weak; ITC: 50 mM Tris pH 8.0, 250 mM NaCl, 2 mM β-mercaptoethanol (TCEP in purification for ITC), 25 °C; EMSA: 5 µM DNA, 30 min at room temperature, 6% native PAGE in TBE on ice; conditions: protein: recombinant; tags: N-terminal His6; chain copies: 4

untagged antitoxin GraA co-expressed with His-tagged GraT (natural protein)
stoichiometry N [1]: 2

AAATTAACGAATAACGTTATTCGTTAATTT (double strand) [Left side mirrored]
Ka [2]: 5.2e+12 M^-2

AGCTGAATGCTTAACGTTAAGCATTCAGCT (double strand) [Right side mirrored]
Ka [2]: 3.5e+12 M^-2

N-terminally His-tagged antitoxin GraA (natural protein)
stoichiometry N [3]: 2 | stoichiometry N [4]: 2 | stoichiometry N [5]: 2

B1: graTA operator wild type 33 bp (dsDNA)
DNA 1: AAATTAACGAATAACGTTAAGCATTCAGCTCAT
DNA 2: ATGAGCTGAATGCTTAACGTTATTCGTTAATTT
Ka [6]: < 1e+07 M^-2 | Ka [7]: 3e+13 M^-2

B2: Variant 6 (dsDNA)
DNA 1: AAATTAACGAATAACGTTAAGCCGGCAGCT
DNA 2: AGCTGCCGGCTTAACGTTATTCGTTAATTT
Ka [8]: 1.5e+13 M^-2

B3: Central palindrome (dsDNA)
DNA 1: GAATAACGTTAAG
DNA 2: CTTAACGTTATTC
binding result [9]: no binding

B4: Variant 2 (dsDNA)
DNA 1: AAATTAACGAAGCCCGTTAAGCCGGCAGCT
DNA 2: AGCTGCCGGCTTAACGGGCTTCGTTAATTT
Ka [8]: 4.7e+11 M^-2

B5: Variant 4 (dsDNA)
DNA 1: AAAGGCACGAATAACGTTAAGCATTCAGCT
DNA 2: AGCTGAATGCTTAACGTTATTCGTGCCTTT
Ka [8]: 4.3e+13 M^-2

B6: Variant 5 (dsDNA)
DNA 1: AAATTAACGCCGAACGTTAAGCATTCAGC
DNA 2: GCTGAATGCTTAACGTTCGGCGTTAATTT
Ka [8]: 7.1e+12 M^-2

B7: Variant 3 (dsDNA)
DNA 1: AAATTAACGAATAGTGTTAAGCATTCAGCT
DNA 2: AGCTGAATGCTTAACACTATTCGTTAATTT
Ka [8]: 3.9e+11 M^-2

B8: Upstream half (dsDNA)
DNA 1: AAATTAACGAATAACGTTAAG
DNA 2: CTTAACGTTATTCGTTAATTT
binding result [9]: no binding

B9: Variant 1 (dsDNA)
DNA 1: AAATTAACGAATAACGGGCCGCATTCAGCT
DNA 2: AGCTGAATGCGGCCCGTTATTCGTTAATTT
Ka [8]: 2.1e+09 M^-2

B10: Downstream half (dsDNA)
DNA 1: AATAACGTTAAGCATTCAGCT
DNA 2: AGCTGAATGCTTAACGTTATT
binding result [9]: no binding
